{"source": "paper PMC3958346", "about": "“Clearance Kinetics and Matrix Binding Partners of the Receptor for Advanced Glycation End Products” (PLoS ONE, 2014)", "test_in_all_cases": "BLI; ForteBIO Octet; purified mouse sRAGE conjugated to amine-reactive sensor tips, matrix protein in solution in varying concentrations; 1800 s association, dissociation in PBS; fit to the 1:1 Langmuir model; constants printed for each analyte concentration", "conditions_in_all_cases": "both partners purified", "key": {"Laminin": {"target": "Laminin"}, "Collagen I": {"target": "Collagen I (Sigma product, species and catalogue number not printed (could be rat or bovine). Natural alpha1(I)2 alpha2(I) heterotrimer taken by convention, propeptides removed; hydroxyproline, hydroxylysine, gly)"}, "Collagen IV": {"target": "Collagen IV (Sigma product, species and catalogue number not printed (human placenta or mouse EHS are both likely). Common alpha1(IV)2 alpha2(IV) heterotrimer taken by convention, 7S domain kept; hydroxyproline, h)"}}, "note": "Several values for one entry are separate records, joined by “and”; a condition that tells them apart may be missing. Equal values may be shown once."}
{"binder": "Mouse soluble RAGE (soluble receptor for advanced glycation end products) (natural protein, UniProt Q62151-1 22-330, looked up, Mouse soluble RAGE, residues 22-330, signal peptide cleaved off; mass 35742.30 Da; mouse membrane RAGE has a published length of 402 (NP_031451.2); Native protein from tissue; Coupled to amine-reactive sensor tips in one orientation, in solution in the other; also called sRAGE; mouse sRAGE; source: endotoxin removed with Detoxi-Gel polymyxin B resin) GGQNITARIGEPLVLSCKGAPKKPPQQLEWKLNTGRTEAWKVLSPQGGPWDSVARILPNGSLLLPATGIVDEGTFRCRATNRRGKEVKSNYRVRVYQIPGKPEIVDPASELTASVPNKVGTCVSEGSYPAGTLSWHLDGKLLIPDGKETLVKEETRRHPETGLFTLRSELTVIPTQGGTHPTFSCSFSLGLPRRRPLNTAPIQLRVREPGPPEGIQLLVEPEGGIVAPGGTVTLTCAISAQPPPQVHWIKDGAPLPLAPSPVLLLPEVGHEDEGTYSCVATHPSHGPQESPPVSIRVTETGDEGPAEGS", "values": [{"measurement": "koff", "setting": "Laminin", "value": "0.000191 s⁻¹ and 0.000102 s⁻¹ and 8.02e-05 s⁻¹ and 0.000108 s⁻¹"}, {"measurement": "kon", "setting": "Laminin", "value": "75400 M⁻¹ s⁻¹ and 106000 M⁻¹ s⁻¹ and 136000 M⁻¹ s⁻¹ and 171000 M⁻¹ s⁻¹"}, {"measurement": "Kd", "setting": "Collagen I", "value": "3.51 nM and 1.62 nM and 1.84 nM"}, {"measurement": "Kd", "setting": "Collagen IV", "value": "2.57 nM and 3.59 nM and 4.81 nM"}, {"measurement": "koff", "setting": "Collagen IV", "value": "6.26e-05 s⁻¹ and 7.72e-05 s⁻¹ and 8.1e-05 s⁻¹"}, {"measurement": "kon", "setting": "Collagen IV", "value": "24400 M⁻¹ s⁻¹ and 21500 M⁻¹ s⁻¹ and 16700 M⁻¹ s⁻¹"}]}
